Here are results for 4 substances from publication PMC5966876.

In the assay the target is cyclin T1 (UniProt O60563). As to the kind of experiment: co-immunoprecipitation (anti-Flag IP, western blot quantification). The note with it: 293T cells, lysed at 48 h posttransfection; 12% SDS-PAGE; parent: est. 100; read off a plot.
Sequence of UniProt O60563 (O60563 whole entry): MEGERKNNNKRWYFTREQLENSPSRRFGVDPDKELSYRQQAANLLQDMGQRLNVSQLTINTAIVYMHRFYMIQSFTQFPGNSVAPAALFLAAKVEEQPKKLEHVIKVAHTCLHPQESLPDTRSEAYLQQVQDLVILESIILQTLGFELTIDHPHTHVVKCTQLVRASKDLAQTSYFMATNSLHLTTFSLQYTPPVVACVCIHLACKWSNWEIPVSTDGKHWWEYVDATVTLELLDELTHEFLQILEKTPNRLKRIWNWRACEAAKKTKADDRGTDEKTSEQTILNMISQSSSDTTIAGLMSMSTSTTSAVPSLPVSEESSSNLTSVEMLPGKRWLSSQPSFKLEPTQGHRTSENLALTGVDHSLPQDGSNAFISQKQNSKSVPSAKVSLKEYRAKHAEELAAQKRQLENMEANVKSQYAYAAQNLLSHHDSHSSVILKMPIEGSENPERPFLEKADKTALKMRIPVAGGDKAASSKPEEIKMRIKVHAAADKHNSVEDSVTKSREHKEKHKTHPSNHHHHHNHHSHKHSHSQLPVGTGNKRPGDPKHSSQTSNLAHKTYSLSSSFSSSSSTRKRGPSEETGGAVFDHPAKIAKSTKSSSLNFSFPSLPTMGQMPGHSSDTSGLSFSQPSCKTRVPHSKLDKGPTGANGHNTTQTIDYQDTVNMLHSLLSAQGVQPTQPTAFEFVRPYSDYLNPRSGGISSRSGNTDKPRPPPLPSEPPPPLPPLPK

For the substance Flag-tagged HIV-1 Tat (WT) S46D, the percent of parent is 22 % of WT Tat.

On to Flag-tagged HIV-1 Tat (WT) S16D, for which the percent of parent is 20 % of WT Tat.

On to Flag-tagged HIV-1 Tat (WT) S46A, for which the percent of parent is 45 % of WT Tat.

For Flag-tagged HIV-1 Tat (WT) S16A, the percent of parent is 48 % of WT Tat.
